Test in all cases: cell-based or functional assay
The target in test [1] is EE-GSK3β: human GSK3β with the EFMPME (EE) epitope tag at the N-terminus (human) (UniProt P49841).
Test [2] deals with PRTSSF.
In test [3] the target is RPRTSAF.
The target in test [4] is RPRTSSPA

Sequence of EE-GSK3β: human GSK3β with the EFMPME (EE) epitope tag at the N-terminus (human) (P49841 other isoform, or with tags, fused parts or gaps): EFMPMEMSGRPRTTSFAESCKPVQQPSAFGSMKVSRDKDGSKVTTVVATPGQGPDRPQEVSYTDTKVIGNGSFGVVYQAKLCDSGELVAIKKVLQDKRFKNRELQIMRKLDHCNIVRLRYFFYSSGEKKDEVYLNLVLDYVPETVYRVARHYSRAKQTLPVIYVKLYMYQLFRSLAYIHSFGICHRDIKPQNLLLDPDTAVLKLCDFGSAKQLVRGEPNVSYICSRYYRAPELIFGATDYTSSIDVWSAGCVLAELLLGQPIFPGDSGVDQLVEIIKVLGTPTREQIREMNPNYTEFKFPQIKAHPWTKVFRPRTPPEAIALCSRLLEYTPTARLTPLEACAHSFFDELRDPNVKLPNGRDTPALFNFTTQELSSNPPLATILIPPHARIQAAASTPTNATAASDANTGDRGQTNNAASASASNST

In test [1], “HA-308D/473D-RAC-PKα: constitutively active double mutant (Thr308 and Ser473 changed to Asp) (enzyme)” returned an increase in GSK3 activity on PP2A treatment after coexpression in 293 cells of 85%. Still for that read-out and setting: under “HA-KD-RAC-PKα: kinase-dead HA-RAC-PKα in which Lys179 is mutated to Ala (enzyme)” stands 12%. As to “HA-RAC-PKα immunoprecipitated from IGF-1 stimulated 293 cells (enzyme)”, the rate of phosphorylation (cell stands under Vmax; may belong to V (0.1 mM)) in test [2], in test [3] and in test [4] was 0 throughout.

In the case of “HA-RAC-PKα: haemagglutinin epitope-tagged wild-type human RAC-PKα (enzyme)”, the increase in GSK3 activity on PP2A treatment after coexpression in 293 cells in test [1] was determined as 68%.

These data come from US20110275102A1.
